From publication PMC8130709, “Structure and activation mechanism of the human liver-type glutaminase GLS2” (Biochimie, 2021)
Positions count from the first letter of the chain named. In names and notes the source's numbering stands. Several values for one entry are separate records, joined by “and”; a condition that tells them apart may be missing. Equal values may be shown once.

B1: Mouse GLS2 (Leu72-Val602) (enzyme, UniProt Q571F8 72-602, looked up)
chain: LGDLLFYTIAEGQERIPIHKFTTALKATGLQTSDPRLQDCMSKMQRMVQESSSGGLLDRELFQKCVSSNIVLLTQAFRKKFVIPDFEEFTGHVDRIFEDAKEPTGGKVAAYIPHLAKSNPDLWGVSLCTVDGQRHSVGHTKIPFCLQSCVKPLTYAISVSTLGTDYVHKFVGKEPSGLRYNKLSLNEEGIPHNPMVNAGAIVVSSLIKMDCNKAEKFDFVLQYLNKMAGNEFMGFSNATFQSEKETGDRNYAIGYYLKEKKCFPKGVDMMAALDLYFQLCSVEVTCESGSVMAATLANGGICPITGESVLSAEAVRNTLSLMHSCGMYDFSGQFAFHVGLPAKSAVSGAILLVVPNVMGMMCLSPPLDKLGNSQRGINFCQKLVSLFNFHNYDNLRHCARKLDPRREGGEVRNKTVVNLLFAAYSGDVSALRRFALSAMDMEQKDYDSRTALHVAAAEGHIEVVKFLIEACKVNPFVKDRWGNIPLDDAVQFNHLEVVKLLQDYHDSYLLSETQAEAAAETLSKENLESMV
notes: liver-type glutaminase GLS2, mouse, residues Leu72-Val602; also called liver-type glutaminase; wild type; source: recombinant, purified
B2: Mouse GLS2 (Leu72-Val602) Lys253Ala mutant (enzyme, UniProt Q571F8 72-602, looked up)
chain: B1 chain with K182A
notes: also called K253A; source: recombinant, purified; point mutant generated by PCR (QuickChange II XL)
B3: Human GLS2 glutaminase domain (Ile154-Gly479) (domain or fragment, UniProt Q9UI32-1 154-479, looked up)
chain: IPDFEEFTGHVDRIFEDVKELTGGKVAAYIPQLAKSNPDLWGVSLCTVDGQRHSVGHTKIPFCLQSCVKPLTYAISISTLGTDYVHKFVGKEPSGLRYNKLSLNEEGIPHNPMVNAGAIVVSSLIKMDCNKAEKFDFVLQYLNKMAGNEYMGFSNATFQSEKETGDRNYAIGYYLKEKKCFPKGVDMMAALDLYFQLCSVEVTCESGSVMAATLANGGICPITGESVLSAEAVRNTLSLMHSCGMYDFSGQFAFHVGLPAKSAVSGAILLVVPNVMGMMCLSPPLDKLGNSHRGTSFCQKLVSLFNFHNYDNLRHCARKLDPRREG
notes: liver-type glutaminase GLS2, human, glutaminase (catalytic) domain, residues Ile154-Gly479, common to the LGA and GAB isoforms; Cloned into pNIC28-Bsa4; also called human GLS2 catalytic domain construct; source: E. coli BL21(DE3)-R3-pRARE2, purified (Ni-NTA, Superdex 200 gel filtration, HiTrap Q HP)

What was measured:
[1] = biological target: the molecule itself; assay: SEC; analytical gel filtration of serial dilutions of the protein, in the absence of phosphate; Stokes radius against protein concentration
[2] = biological target: the molecule itself; assay: crystal structure; ligand-free, sitting drop at 293 K, 0.1 M Tris pH 8.5, 0.2 M NaCl, 25% PEG 3350; space group H 3 2, two monomers in the asymmetric unit, tetramer generated by crystal symmetry

Row | Protein | stoichiometry N [1] | stoichiometry N [2]
1 | B1 | 2 and 4 | –
2 | B2 | 4 | –
3 | B3 | – | 4
